From patent US20200024322A1 (Eli Lilly, published 2020) come the findings set out here.

One assay concerns the target T1, human GLP-1 receptor (human, UniProt P43220 24-463).
T1 construct: whole, on cells; Used as crude membranes of stably transfected HEK293 cells; also called hGLP1R; hGLP-1R
Kind of assay: SPA, [125I]-GLP-1 displacement, hGLP-1R membranes.

Another assay deals with T2, human glucagon receptor (human, UniProt P47871 26-477).
T2 construct: whole, on cells; Used as crude membranes of stably transfected HEK293 cells; also called hGcgR; hGLcgR
Briefly: SPA, [125I]-Gcg displacement, hGcgR membranes.

For the next assay, the target named is T3, human GIP receptor (human, UniProt P48546 22-466).
T3 construct: whole, on cells; Used as crude membranes of stably transfected CHO cells; also called hGIPR
T3 sequence (looked up): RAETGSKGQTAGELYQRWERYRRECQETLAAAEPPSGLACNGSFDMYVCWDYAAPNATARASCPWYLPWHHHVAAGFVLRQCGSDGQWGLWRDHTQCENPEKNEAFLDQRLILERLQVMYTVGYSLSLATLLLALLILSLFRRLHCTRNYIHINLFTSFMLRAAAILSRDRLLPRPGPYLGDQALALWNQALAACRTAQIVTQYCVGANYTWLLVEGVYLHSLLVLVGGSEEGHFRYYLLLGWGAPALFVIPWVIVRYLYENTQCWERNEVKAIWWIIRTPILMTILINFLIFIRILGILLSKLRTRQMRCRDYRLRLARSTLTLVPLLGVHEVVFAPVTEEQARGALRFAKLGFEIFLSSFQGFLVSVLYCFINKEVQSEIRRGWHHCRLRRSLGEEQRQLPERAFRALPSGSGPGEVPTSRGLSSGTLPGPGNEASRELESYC
Briefly: SPA, [125I]-GIP displacement, hGIPR membranes.

Numbered stars: 1 amine (or outer) side, 2 acyl side, 3 side chain; on linkers, the order of the positions; unused ones are H or OH. Square brackets hold non-standard residues; d marks the D form. Side chains are listed from the residue outwards. Ends that are not written are not given here. * marks the point of attachment. C20 diacid = O=C(O)CCCCCCCCCCCCCCCCCCC(=O)*; γGlu = O=C(O)[C@H](CCC(=O)[*:2])N[*:1]; AEEA = NCCOCCOCC(=O)O; Aib = CC(C)(N)C(=O)O

T2 sequence (P47871 26-477): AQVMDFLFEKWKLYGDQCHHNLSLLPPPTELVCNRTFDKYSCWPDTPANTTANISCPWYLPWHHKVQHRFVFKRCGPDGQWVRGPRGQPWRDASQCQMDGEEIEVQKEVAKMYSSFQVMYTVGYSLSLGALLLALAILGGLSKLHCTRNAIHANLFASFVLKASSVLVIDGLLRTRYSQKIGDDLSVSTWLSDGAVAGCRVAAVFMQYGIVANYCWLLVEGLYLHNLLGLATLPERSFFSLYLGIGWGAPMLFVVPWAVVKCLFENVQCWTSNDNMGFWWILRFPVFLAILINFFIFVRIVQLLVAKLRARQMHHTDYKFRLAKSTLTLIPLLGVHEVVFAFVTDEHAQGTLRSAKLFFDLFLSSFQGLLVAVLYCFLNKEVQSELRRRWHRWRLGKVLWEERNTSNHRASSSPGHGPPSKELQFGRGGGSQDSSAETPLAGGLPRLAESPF

B1: Example 15 (peptide)
peptide: H[Aib]EGTFTSDYSILLDKK([AEEA-AEEA-γGlu-C20 diacid])AQ[Aib]AFIEYLLE[Aib]GPSSGAPPPS-NH2
modifications: N-terminus assumed
SMILES: CC[C@H](C)[C@H](NC(=O)[C@H](Cc1ccccc1)NC(=O)[C@H](C)NC(=O)C(C)(C)NC(=O)[C@H](CCC(N)=O)NC(=O)[C@H](C)NC(=O)[C@H](CCCCNC(=O)COCCOCCNC(=O)COCCOCCNC(=O)CC[C@H](NC(=O)CCCCCCCCCCCCCCCCCCC(=O)O)C(=O)O)NC(=O)[C@H](CCCCN)NC(=O)[C@H](CC(=O)O)NC(=O)[C@H](CC(C)C)NC(=O)[C@H](CC(C)C)NC(=O)[C@@H](NC(=O)[C@H](CO)NC(=O)[C@H](Cc1ccc(O)cc1)NC(=O)[C@H](CC(=O)O)NC(=O)[C@H](CO)NC(=O)[C@@H](NC(=O)[C@H](Cc1ccccc1)NC(=O)[C@@H](NC(=O)CNC(=O)[C@H](CCC(=O)O)NC(=O)C(C)(C)NC(=O)[C@@H](N)Cc1c[nH]cn1)[C@@H](C)O)[C@@H](C)O)[C@@H](C)CC)C(=O)N[C@@H](CCC(=O)O)C(=O)N[C@@H](Cc1ccc(O)cc1)C(=O)N[C@@H](CC(C)C)C(=O)N[C@@H](CC(C)C)C(=O)N[C@@H](CCC(=O)O)C(=O)NC(C)(C)C(=O)NCC(=O)N1CCC[C@H]1C(=O)N[C@@H](CO)C(=O)N[C@@H](CO)C(=O)NCC(=O)N[C@@H](C)C(=O)N1CCC[C@H]1C(=O)N1CCC[C@H]1C(=O)N1CCC[C@H]1C(=O)N[C@@H](CO)C(N)=O
A word on the Ki: it is a measure of affinity in units of concentration, obtained from inhibition or displacement. A high value points to weaker binding. In the case of B1, the inhibition constant Ki in the assay with human GLP-1 receptor was found to be 2.19 nM; in the assay with human glucagon receptor, 130 nM; with human GIP receptor, 0.284 nM.

B2: Example 12 (peptide)
peptide: Y[Aib]EGTFTSDYSILLDKIAQK([AEEA-AEEA-γGlu-C20 diacid])AFIEYLIEGGPSSGAPPPS-NH2
modifications: N-terminus assumed
SMILES: CC[C@H](C)[C@H](NC(=O)[C@H](CCCCN)NC(=O)[C@H](CC(=O)O)NC(=O)[C@H](CC(C)C)NC(=O)[C@H](CC(C)C)NC(=O)[C@@H](NC(=O)[C@H](CO)NC(=O)[C@H](Cc1ccc(O)cc1)NC(=O)[C@H](CC(=O)O)NC(=O)[C@H](CO)NC(=O)[C@@H](NC(=O)[C@H](Cc1ccccc1)NC(=O)[C@@H](NC(=O)CNC(=O)[C@H](CCC(=O)O)NC(=O)C(C)(C)NC(=O)[C@@H](N)Cc1ccc(O)cc1)[C@@H](C)O)[C@@H](C)O)[C@@H](C)CC)C(=O)N[C@@H](C)C(=O)N[C@@H](CCC(N)=O)C(=O)N[C@@H](CCCCNC(=O)COCCOCCNC(=O)COCCOCCNC(=O)CC[C@H](NC(=O)CCCCCCCCCCCCCCCCCCC(=O)O)C(=O)O)C(=O)N[C@@H](C)C(=O)N[C@@H](Cc1ccccc1)C(=O)N[C@H](C(=O)N[C@@H](CCC(=O)O)C(=O)N[C@@H](Cc1ccc(O)cc1)C(=O)N[C@@H](CC(C)C)C(=O)N[C@H](C(=O)N[C@@H](CCC(=O)O)C(=O)NCC(=O)NCC(=O)N1CCC[C@H]1C(=O)N[C@@H](CO)C(=O)N[C@@H](CO)C(=O)NCC(=O)N[C@@H](C)C(=O)N1CCC[C@H]1C(=O)N1CCC[C@H]1C(=O)N1CCC[C@H]1C(=O)N[C@@H](CO)C(N)=O)[C@@H](C)CC)[C@@H](C)CC
As for B2, the inhibition constant Ki worked out at 12.9 nM with human GLP-1 receptor, 684 nM in the assay with human glucagon receptor and 0.167 nM in the assay with human GIP receptor.

B3: Example 11 (peptide)
peptide: Y[Aib]EGTFTSDYSILLDSIAQ[Aib]AFIEYLLK([AEEA-AEEA-γGlu-C20 diacid])[Aib]GPSSGAPPPS-NH2
modifications: N-terminus assumed
SMILES: CC[C@H](C)[C@H](NC(=O)[C@H](CO)NC(=O)[C@H](CC(=O)O)NC(=O)[C@H](CC(C)C)NC(=O)[C@H](CC(C)C)NC(=O)[C@@H](NC(=O)[C@H](CO)NC(=O)[C@H](Cc1ccc(O)cc1)NC(=O)[C@H](CC(=O)O)NC(=O)[C@H](CO)NC(=O)[C@@H](NC(=O)[C@H](Cc1ccccc1)NC(=O)[C@@H](NC(=O)CNC(=O)[C@H](CCC(=O)O)NC(=O)C(C)(C)NC(=O)[C@@H](N)Cc1ccc(O)cc1)[C@@H](C)O)[C@@H](C)O)[C@@H](C)CC)C(=O)N[C@@H](C)C(=O)N[C@@H](CCC(N)=O)C(=O)NC(C)(C)C(=O)N[C@@H](C)C(=O)N[C@@H](Cc1ccccc1)C(=O)N[C@H](C(=O)N[C@@H](CCC(=O)O)C(=O)N[C@@H](Cc1ccc(O)cc1)C(=O)N[C@@H](CC(C)C)C(=O)N[C@@H](CC(C)C)C(=O)N[C@@H](CCCCNC(=O)COCCOCCNC(=O)COCCOCCNC(=O)CC[C@H](NC(=O)CCCCCCCCCCCCCCCCCCC(=O)O)C(=O)O)C(=O)NC(C)(C)C(=O)NCC(=O)N1CCC[C@H]1C(=O)N[C@@H](CO)C(=O)N[C@@H](CO)C(=O)NCC(=O)N[C@@H](C)C(=O)N1CCC[C@H]1C(=O)N1CCC[C@H]1C(=O)N1CCC[C@H]1C(=O)N[C@@H](CO)C(N)=O)[C@@H](C)CC
Turning to B3, the inhibition constant Ki came to 15.7 nM with human GLP-1 receptor, 174 nM with human glucagon receptor and 0.226 nM with human GIP receptor.

B4: Example 157 (peptide)
peptide: YXEGTXTSDXSIXLDEKAQXEFIEYLIEGGPSSGAPPPS
modifications: Aib2; αMeF(2F)6; 3Pal10; αMeL13; K17((2-[2-(2-Amino-ethoxy)-ethoxy]-acetyl)2-(γ-Glu)-CO-(CH2)18-CO2H); Aib20; C-terminal NH2
For the molecule B4, the Ki was found to be 8.97 nM with human GLP-1 receptor, 179 nM in the assay with human glucagon receptor and 0.0937 nM in the assay with human GIP receptor.

B5: Example 158 (peptide)
peptide: YXEGTXTSDXSIXLDEKAQXEFIEYLIEGGPSSGAPPPS
modifications: Aib2; αMeF(2F)6; 4Pal10; αMeL13; K17((2-[2-(2-Amino-ethoxy)-ethoxy]-acetyl)2-(γ-Glu)-CO-(CH2)18-CO2H); Aib20; C-terminal NH2
B5: the Ki in the assay with human GLP-1 receptor came out at 11.8 nM; in the assay with human glucagon receptor, 285 nM; with human GIP receptor it was 0.114 nM.

B6: Example 189 (peptide)
peptide: YXEGTXTSDXSIXLDEKAQXEFIXYLIEGGPSSGAPPPS
modifications: Aib2; αMeF(2F)6; 4Pal10; αMeL13; K17((2-[2-(2-Amino-ethoxy)-ethoxy]-acetyl)2-(γ-Glu)-CO-(CH2)18-CO2H); Aib20; Aib24; C-terminal NH2
As to B6, the inhibition constant Ki turned out to be 8.81 nM in the assay with human GLP-1 receptor, 146 nM in the assay with human glucagon receptor and 0.128 nM in the assay with human GIP receptor.

B7: Example 207 (peptide)
peptide: YXEGTXTSDXSIXLDEKAQXEFIXYLIEGGPSSGAPPPS
modifications: Aib2; αMeF(2F)6; 4Pal10; αMeL13; K17((2-[2-(2-Amino-ethoxy)-ethoxy]-acetyl)2-(εK)-CO-(CH2)18-CO2H); Aib20; D-Glu24; C-terminal NH2
Consider B7, for which the Ki with human GLP-1 receptor is 1.37 nM; with human glucagon receptor, 74.2 nM; in the assay with human GIP receptor it was 0.0786 nM.

B8: Example 206 (peptide)
peptide: YXEGTXTSDXSIXLDEKAQXEFIXYLIEGGPSSGAPPPS
modifications: Aib2; αMeF(2F)6; 4Pal10; αMeL13; K17((2-[2-(2-Amino-ethoxy)-ethoxy]-acetyl)2-CO-(CH2)18-CO2H); Aib20; D-Glu24; C-terminal NH2
With B8, the inhibition constant (Ki) is 5.27 nM with human GLP-1 receptor, 176 nM with human glucagon receptor and 0.0814 nM with human GIP receptor.

B9: Example 182 (peptide)
peptide: YXEGTXTSDXSIXLDEKAQXEFIXYLIEGGPSSGAPPPS
modifications: not printed (the compound name of this Example is missing from the table of Examples 6-287)
With B9, the Ki with human GLP-1 receptor was 4.64 nM; in the assay with human glucagon receptor it was 565 nM; with human GIP receptor it was 0.0669 nM.

B10: Example 205 (peptide)
peptide: YXEGTXTSDXSIXLDEKAQXEFIXYLIEGGPSSGAPPPS
modifications: Aib2; αMeF(2F)6; 4Pal10; αMeL13; K17((2-[2-(2-Amino-ethoxy)-ethoxy]-acetyl)2-CO-(CH2)16-CO2H); Aib20; D-Glu24; C-terminal NH2
Take B10: the Ki is 3.05 nM in the assay with human GLP-1 receptor, 438 nM with human glucagon receptor and 0.0367 nM with human GIP receptor.

B11: Example 181 (peptide)
peptide: YXEGTXTSDXSIXLDEKAQXEFIXYLIEGGPSSGAPPPS
modifications: not printed (the compound name of this Example is missing from the table of Examples 6-287)
Regarding B11, the inhibition constant (Ki) with human GLP-1 receptor was found to be 7.28 nM; with human glucagon receptor it was 413 nM; with human GIP receptor it was 0.145 nM.

B12: Example 202 (peptide)
peptide: YXEGTXTSDXSIXLDKKAQXEFIXYLIEGGPSSGAPPPS
modifications: Aib2; αMeF(2F)6; 4Pal10; αMeL13; K17((2-[2-(2-Amino-ethoxy)-ethoxy]-acetyl)-(γ-Glu)-(2-[2-(2-Amino-ethoxy)-ethoxy]-acetyl)-CO-(CH2)18-CO2H); Aib20; D-Glu24; C-terminal NH2
In the case of B12, the Ki with human GLP-1 receptor was determined as 5.38 nM; in the assay with human glucagon receptor, 394 nM; with human GIP receptor, 0.0579 nM.

B13: Example 203 (peptide)
peptide: YXEGTXTSDXSIXLDKKAQXEFIXYLIEGGPSSGAPPPS
modifications: Aib2; αMeF(2F)6; 4Pal10; αMeL13; K17((2-[2-(2-Amino-ethoxy)-ethoxy]-acetyl)2-(γ-Glu)-CO-(CH2)18-CO2H); Aib20; D-Glu24; C-terminal NH2
B13: the inhibition constant (Ki) with human GLP-1 receptor was 3.9 nM; with human glucagon receptor it was 845 nM; with human GIP receptor, 0.0337 nM.

B14: Example 14 (peptide)
peptide: Y[Aib]EGTFTSDYSILLDKIAQK([AEEA-AEEA-γGlu-C20 diacid])EFIQYLLE[Aib]GPSSGAPPPS-NH2
modifications: N-terminus assumed
SMILES: CC[C@H](C)[C@H](NC(=O)[C@H](CCCCN)NC(=O)[C@H](CC(=O)O)NC(=O)[C@H](CC(C)C)NC(=O)[C@H](CC(C)C)NC(=O)[C@@H](NC(=O)[C@H](CO)NC(=O)[C@H](Cc1ccc(O)cc1)NC(=O)[C@H](CC(=O)O)NC(=O)[C@H](CO)NC(=O)[C@@H](NC(=O)[C@H](Cc1ccccc1)NC(=O)[C@@H](NC(=O)CNC(=O)[C@H](CCC(=O)O)NC(=O)C(C)(C)NC(=O)[C@@H](N)Cc1ccc(O)cc1)[C@@H](C)O)[C@@H](C)O)[C@@H](C)CC)C(=O)N[C@@H](C)C(=O)N[C@@H](CCC(N)=O)C(=O)N[C@@H](CCCCNC(=O)COCCOCCNC(=O)COCCOCCNC(=O)CC[C@H](NC(=O)CCCCCCCCCCCCCCCCCCC(=O)O)C(=O)O)C(=O)N[C@@H](CCC(=O)O)C(=O)N[C@@H](Cc1ccccc1)C(=O)N[C@H](C(=O)N[C@@H](CCC(N)=O)C(=O)N[C@@H](Cc1ccc(O)cc1)C(=O)N[C@@H](CC(C)C)C(=O)N[C@@H](CC(C)C)C(=O)N[C@@H](CCC(=O)O)C(=O)NC(C)(C)C(=O)NCC(=O)N1CCC[C@H]1C(=O)N[C@@H](CO)C(=O)N[C@@H](CO)C(=O)NCC(=O)N[C@@H](C)C(=O)N1CCC[C@H]1C(=O)N1CCC[C@H]1C(=O)N1CCC[C@H]1C(=O)N[C@@H](CO)C(N)=O)[C@@H](C)CC
B14: the inhibitory constant (Ki) with human GLP-1 receptor was determined as 29.6 nM; in the assay with human glucagon receptor it was 160 nM; in the assay with human GIP receptor, 0.0494 nM.
